Data from article PMC12102759.

B1: MXI1 peptide 6-21 (Max-interacting protein 1), 16-mer library wild type / SIN3A PAH2 (SIN3A PAH domain, residues 295-383) (parent)
chain 1: MINVQRLLEAAEFLER
chain 2: SLQNNQPVEFNHAINYVNKIKNRFQGQPDIYKAFLEILHTYQKEQRNAKEAGGNYTPALTEQEVYAQVARLFKNQEDLLSEFGQFLPDA
B2: RNF115 peptide 69-84 (E3 ubiquitin-protein ligase RNF115), 16-mer library wild type / MDM2 SWIB (MDM2 SWIB/MDM2 domain, residues 17-125) (parent)
chain 1: THFAELWGHLDHTMFF
chain 2: SQIPASEQETLVRPKPLLLKLLKSVGAQKDTYTMKEVLFYLGQYIMTKRLYDEKQQHIVYCSNDLLGDLFGVPSFSVKEHRKIYTMIYRNLVVVNQQESSDSGTSVSEN
B3: MXI1 peptide 4-19 (Max-interacting protein 1), 16-mer library wild type / SIN3A PAH2 (SIN3A PAH domain, residues 295-383) (parent)
chain 1: VKMINVQRLLEAAEFL
chain 2: B1 chain 2

Variants of: B1
Assay: proteomic peptide phage display deep mutational scan (ProP-PD DMS): M13 P8 16-mer library selected against immobilised GST-tagged bait for four days (rounds), NGS of the eluted pools per day and pseudo-replica
Settings: with SIN3A PAH2 (SIN3A PAH domain, residues 295-383); bait immobilised on MaxiSorp plates (10 µg), library pre-cleared on GST, 2 h binding at 4 °C, five washes; one round per day, days 1-4; value from days 2 and 3; keep out of graded; scale: average fractional NGS count over selection days 2 and 3

screen value	Variant
0	chain 1 R6T
4.27e-05	chain 1 R6F
5.76e-05	chain 1 R6D
6.6e-05	chain 1 R6M
0	chain 1 V4S
6.66e-05	chain 1 V4G
0	chain 1 V4R
0	chain 1 V4E
1.91e-05	chain 1 V4P
7.16e-05	chain 1 V4M
3.48e-05	chain 1 Q5P
6.78e-05	chain 1 Q5W

Variants of: B2
Assay: as above
Settings: with MDM2 SWIB (MDM2 SWIB/MDM2 domain, residues 17-125); bait immobilised on MaxiSorp plates (10 µg), library pre-cleared on GST, 2 h binding at 4 °C, five washes; one round per day, days 1-4; value from days 2 and 3; keep out of graded; scale: average fractional NGS count over selection days 2 and 3

Variant	screen value
chain 1 G8I	3.49e-05
chain 1 G8L	6.83e-05
chain 1 A4R	5.64e-05
chain 1 H9L	3.74e-05
chain 1 H9P	0
chain 1 E5L	5.37e-05
chain 1 E5G	0.00012
chain 1 E5P	0
chain 1 E5M	4.31e-05
chain 1 E5K	0
chain 1 E5I	1.29e-05
chain 1 E5F	4.65e-05
chain 1 D11V	5.15e-05
chain 1 F15E	5.35e-05
chain 1 F3K	0
chain 1 F3P	0.000115
chain 1 F3M	0
chain 1 H12R	4.65e-05
chain 1 H12W	3.9e-05
chain 1 H12Y	4.94e-05

More lines, now with the values ahead:

screen value	Variant
5.94e-05	chain 1 M14I
6.33e-05	chain 1 M14R
7.54e-05	chain 1 M14K
0	chain 1 L10Y
0	chain 1 L10E
0	chain 1 L10G
0	chain 1 L10P
0	chain 1 L10A
0.000123	chain 1 L10W
0	chain 1 L6T
0	chain 1 L6S
5.86e-05	chain 1 T1K
1.6e-05	chain 1 T1R
8.39e-05	chain 1 T1E
0	chain 1 W7E
0	chain 1 W7D
0	chain 1 W7K
0	chain 1 W7N
4.86e-05	chain 1 T13E
3.43e-05	chain 1 T13F

Variants of: B3
Assay: as above
Settings: with SIN3A PAH2 (SIN3A PAH domain, residues 295-383); bait immobilised on MaxiSorp plates (10 µg), library pre-cleared on GST, 2 h binding at 4 °C, five washes; one round per day, days 1-4; value from days 2 and 3; keep out of graded; scale: average fractional NGS count over selection days 2 and 3

Variant	screen value
chain 1 K2W	0.00198
chain 1 K2S	0.00272
chain 1 K2R	0.000162
chain 1 K2H	0.00169
chain 1 K2N	0.00263
chain 1 K2P	0.00116
chain 1 K2V	0.000308
chain 1 K2I	0.00027
chain 1 K2G	0.00453
chain 1 K2Q	0.00731
chain 1 K2L	0.00133
chain 1 K2M	0.000167
chain 1 E11G	0
chain 1 E11W	0.00397
chain 1 E11P	0
chain 1 I4M	0.00797
chain 1 I4A	0
chain 1 I4K	0
chain 1 I4N	0.000113

Variant	screen value
chain 1 I4W	8.32e-05
chain 1 I4F	0.000274
chain 1 I4T	0.000667
chain 1 I4G	4.79e-05
chain 1 I4D	0.00294
chain 1 I4V	0.00213
chain 1 I4H	0.000141
chain 1 I4L	0.00108
chain 1 F15Y	0.00011
chain 1 F15V	2.36e-05
chain 1 F15S	4.3e-05
chain 1 F15G	4.24e-05
chain 1 F15R	3.85e-05
chain 1 F15T	9.49e-05
chain 1 F15A	0.00102
chain 1 F15I	0
chain 1 F15H	2.84e-05
chain 1 F15W	0.000134
chain 1 E14M	0.00144

Variant	screen value
chain 1 E14R	0.00116
chain 1 E14N	0.000159
chain 1 E14A	0.0141
chain 1 E14F	0.000859
chain 1 E14D	0.0127
chain 1 E14G	0.00102
chain 1 E14I	0.00251
chain 1 E14V	0.0112
chain 1 E14S	0.00604
chain 1 E14Q	0.00119
chain 1 E14Y	0.00266
chain 1 A13D	2.4e-05
chain 1 A13K	0
chain 1 A13M	8.44e-05
chain 1 A13I	0.000995
chain 1 A13G	3.3e-05
chain 1 A13H	0.000246
chain 1 A13F	0.00117

Continued, values first:

screen value	Variant
8.06e-05	chain 1 L16N
0.000122	chain 1 L16R
0.00145	chain 1 L16I
7.16e-05	chain 1 L16K
0.000343	chain 1 L16Q
7.18e-05	chain 1 L16E
5.21e-05	chain 1 L16G
0.000201	chain 1 L16A
5.21e-05	chain 1 L16D
7.65e-05	chain 1 L16V
3.79e-05	chain 1 L16T
9.12e-05	chain 1 L16S
0.000538	chain 1 L16H
3.86e-05	chain 1 L16M
0	chain 1 L10A
0.000112	chain 1 L10T
3.85e-05	chain 1 L10W
0	chain 1 L10V
0.00178	chain 1 K2Y
0.000284	chain 1 Q7T

screen value	Variant
0.000125	chain 1 Q7S
0.00118	chain 1 Q7V
0.00193	chain 1 Q7W
0	chain 1 Q7P
0.000431	chain 1 Q7L
0	chain 1 Q7M
0	chain 1 Q7E
0	chain 1 Q7G
0.000148	chain 1 R8Y
5.66e-05	chain 1 R8L
0.000199	chain 1 R8I
0	chain 1 R8E
0.000403	chain 1 R8G
0.000431	chain 1 R8N
2.88e-05	chain 1 R8V
0.000659	chain 1 R8Q
0.000466	chain 1 R8A
9.12e-05	chain 1 R8M
0.000316	chain 1 R8K
0.000529	chain 1 R8S

screen value	Variant
0.000195	chain 1 R8W
0.000458	chain 1 V6Y
0.000299	chain 1 V6M
0	chain 1 V6S
2.36e-05	chain 1 V6Q
0	chain 1 V6T
0.000142	chain 1 V6I
0.000154	chain 1 M3H
0	chain 1 M3L
4.82e-05	chain 1 M3T
8.38e-05	chain 1 M3W
0.000126	chain 1 M3D
9.82e-05	chain 1 M3G
0	chain 1 M3R
2.4e-05	chain 1 M3N
6.73e-05	chain 1 M3A
0.000204	chain 1 M3V
0	chain 1 L9G
0	chain 1 L9N
